From patent US20100260765A1 (AstraZeneca / MedImmune, published 2010)

Columns and labels:
Assay in all cases: cell-based or functional assay
[1] = target: human KDR on cells (human, UniProt P35968 20-1356)
[2] = target: T1, KDR (human, UniProt P35968 20-1356)
[3] = target: T1, KDR; remark: listed apart in the source
[4] = target: T1, KDR; remark: listed apart in the source
[5] = target: T1, KDR; remark: listed apart in the source

Chain of human KDR on cells (P35968 20-1356): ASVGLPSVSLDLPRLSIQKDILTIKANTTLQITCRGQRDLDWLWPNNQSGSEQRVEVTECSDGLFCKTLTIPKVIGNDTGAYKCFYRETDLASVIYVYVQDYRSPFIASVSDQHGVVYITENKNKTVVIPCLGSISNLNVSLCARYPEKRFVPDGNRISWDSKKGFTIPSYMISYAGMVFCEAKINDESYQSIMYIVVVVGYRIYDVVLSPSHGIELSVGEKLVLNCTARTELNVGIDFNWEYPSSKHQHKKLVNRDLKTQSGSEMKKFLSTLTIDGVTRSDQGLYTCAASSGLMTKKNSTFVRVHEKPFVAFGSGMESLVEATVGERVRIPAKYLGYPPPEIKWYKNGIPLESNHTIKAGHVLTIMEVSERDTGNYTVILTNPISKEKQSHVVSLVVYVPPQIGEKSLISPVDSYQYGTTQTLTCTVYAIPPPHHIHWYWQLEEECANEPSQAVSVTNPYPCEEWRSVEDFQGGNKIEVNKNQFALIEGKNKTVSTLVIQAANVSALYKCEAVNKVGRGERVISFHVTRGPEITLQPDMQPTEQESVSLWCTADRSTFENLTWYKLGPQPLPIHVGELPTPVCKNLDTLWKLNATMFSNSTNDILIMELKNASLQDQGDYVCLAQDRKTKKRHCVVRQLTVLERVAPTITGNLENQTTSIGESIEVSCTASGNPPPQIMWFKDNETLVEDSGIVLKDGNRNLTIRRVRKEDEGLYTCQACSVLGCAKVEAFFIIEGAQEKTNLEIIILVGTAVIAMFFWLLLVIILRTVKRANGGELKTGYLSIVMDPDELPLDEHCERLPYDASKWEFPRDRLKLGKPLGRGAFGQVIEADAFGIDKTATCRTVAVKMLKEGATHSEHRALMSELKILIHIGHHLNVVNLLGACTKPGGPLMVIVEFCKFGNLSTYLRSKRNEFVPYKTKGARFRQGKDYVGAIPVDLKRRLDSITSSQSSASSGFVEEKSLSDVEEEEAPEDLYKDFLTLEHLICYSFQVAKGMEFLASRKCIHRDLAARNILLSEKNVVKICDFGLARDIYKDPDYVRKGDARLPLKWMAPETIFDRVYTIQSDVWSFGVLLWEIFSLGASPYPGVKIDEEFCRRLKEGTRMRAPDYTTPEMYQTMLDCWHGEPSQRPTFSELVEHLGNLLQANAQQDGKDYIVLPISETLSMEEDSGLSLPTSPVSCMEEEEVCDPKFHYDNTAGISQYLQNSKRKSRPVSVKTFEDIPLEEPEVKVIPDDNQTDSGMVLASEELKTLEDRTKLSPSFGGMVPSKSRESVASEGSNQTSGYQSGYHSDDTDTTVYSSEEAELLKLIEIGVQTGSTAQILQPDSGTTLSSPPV
T1 sequence (P35968 20-1356): as above

| Binder | % Inhibition (Average) of VEGF-C-mediated KDR activity, antibody 1 nM [1] | % Inhibition (Average) of VEGF-C-mediated KDR activity, antibody 10 nM [1] | % Inhibition (Average) of VEGF-C-mediated KDR activity, antibody 100 nM [1] | % Inhibition (N = 1) of VEGF-C-mediated KDR activity, antibody 1 nM [1] | % Inhibition (N = 1) of VEGF-C-mediated KDR activity, antibody 10 nM [1] | % Inhibition (N = 1) of VEGF-C-mediated KDR activity, antibody 100 nM [1] | % Inhibition (N = 2) of VEGF-C-mediated KDR activity, antibody 1 nM [1] | % Inhibition (N = 2) of VEGF-C-mediated KDR activity, antibody 10 nM [1] | % Inhibition (N = 2) of VEGF-C-mediated KDR activity, antibody 100 nM [1] | other results |
| --- | --- | --- | --- | --- | --- | --- | --- | --- | --- | --- |
| 33B1 (antibody, V domains shown) VH: EVQLVESGGGLVKPGGSLRLSCAASGFTFSSYTMNWVRQAPGKGLEWVSFIDSRSSYIYYADSVKGRFTISRDNAKNSLYLQMNSLRAEDTAVYYCSKDDWFEELWGQGTLVTVSS VL: DIQMTQSPSSLSASVGDRVTITCRASQGIRNDLGWYQQKPGKAPKRLIYATSSLQSGVPSRFSGSGSGTEFTLTISSLQPEDFATYYCLHHNSFPWTFGQGTKVEIK | 49% | 62% | 68% | 45% | 61% | 64% | 53% | 62% | 73% |  |
| 32F4 (antibody, V domains shown) VH: QLQLQESGPGLVKPSGTLSLSCTVSGGSISSRSDYWGWIRQPPGKGLEWIGTIYYSGNTFYNPSLKSRVTISVDTSKKQFSLKLSSVTAADTAVYYCARQQLVLYYFDYWGQGTLVTVSS VL: EIVLTQSPGTLSLSPGERATLSCRTSQSVSSSYLAWYQQKPGQAPRLLIYGASSRATGVPDRFSGSGSGTDFSLTISRLEPEDFAVYYCQQYGSSPPLTFGGGTKVEIK [32F4, listing 1 of 2 here] |  |  |  |  |  |  |  |  |  | Activity at 133 nM (% Inhibition), 1-hour Pre-incubation at 4° C., Average [2]: 64%; Activity at 133 nM (% Inhibition), 1-hour Pre-incubation at 4° C., N = 1 [2]: 60%; Activity at 133 nM (% Inhibition), 1-hour Pre-incubation at 4° C., N = 2 [2]: 68%; Activity at 133 nM (% Inhibition), 24-hour Pre-incubation at 37° C., Average [3]: 22%; Activity at 133 nM (% Inhibition), 24-hour Pre-incubation at 37° C., N = 1 [3]: 25%; Activity at 133 nM (% Inhibition), 24-hour Pre-incubation at 37° C., N = 2 [3]: 18%; Activity at 133 nM Antibody Concentration (% Survival Inhibition), Average [4]: 73%; Activity at 133 nM Antibody Concentration (% Survival Inhibition), N = 1 [4]: 88%; Activity at 133 nM Antibody Concentration (% Survival Inhibition), N = 2 [4]: 58%; % Inhibition of VEGF165-mediated 6-keto Prostaglandin F1α release at 133 nM Antibody Concentration, Average [5]: 73%; % Inhibition of VEGF165-mediated 6-keto Prostaglandin F1α release at 133 nM Antibody Concentration, N = 1 [5]: 69%; % Inhibition of VEGF165-mediated 6-keto Prostaglandin F1α release at 133 nM Antibody Concentration, N = 2 [5]: 76% |
| 29D4 (antibody, V domains shown) VH: QLQLQESGPGLVKPSETLSLTCTVSGGSISSRSNYWGWIRQPPGKGLEWIGTIYYSGHTYYNPSLKSRVSISVDTSKNQFSLKLSSVTATDTALYYCARQQLVLYYFEYWGQGTLVTVSS VL: not shown | 34% | 71% | 76% | 42% | 71% | 74% | 25% | 72% | 79% |  |
| 32F4 (antibody, V domains shown) VH: QLQLQESGPGLVKPSGTLSLSCTVSGGSISSRSDYWGWIRQPPGKGLEWIGTIYYSGNTFYNPSLKSRVTISVDTSKKQFSLKLSSVTAADTAVYYCARQQLVLYYFDYWGQGTLVTVSS VL: EIVLTQSPGTLSLSPGERATLSCRTSQSVSSSYLAWYQQKPGQAPRLLIYGASSRATGVPDRFSGSGSGTDFSLTISRLEPEDFAVYYCQQYGSSPPLTFGGGTKVEIK [32F4, listing 2 of 2 here] | 43% | 77% | 81% | 55% | 76% | 75% | 31% | 79% | 86% |  |
| 31E11 (antibody, V domains shown) VH: QVQLVESGGGLVKPGGSLRLSCAASGFTFSDYYMSWIRQAPGKGLEWVSYISISGSTIYYADSVKGRFTISRDNAKNSLYLQMNSLRAEDTAVYYCARDDFWSGYYFNWFDPWGQGTLVTVSS VL: DIQMTQSPSSLSASVGDRVTITCRANQTISTFLNWYQQNPGKAPKLLIYAASSLQSGVPSRFSGSGSGTDFTLTISSLQPEDFATYYCQQTYIIPLTFGGGTKVEIK | 40% | 83% | 84% | 47% | 81% | 84% | 33% | 85% | 84% |  |
| 22B8 (antibody, V domains shown) VH: QLQLQESGPGLVKPSETLSLTCTVSGGSISSRYYYWGWVRQPPGKGLEWIGTIYYSGHTYYNPSLKTRVTISVDTSKNQFSLKLISVTAADTAVYYCATQQLVLYYFDFWGQGTLVTVSS VL: EIVLTQSPGTLSLSPGERAALSCRASQSISSSYLAWYQQRPGQAPRLLIYGASSRATGIPDRFNGSGSGTDFTLTISRLEPEDFAVYYCQQFGSSITFGQGTRLEIK | 27% | 65% | 74% | 38% | 74% | 71% | 17% | 56% | 77% |  |
| 27A3 (antibody, V domains shown) VH: QLQLQESGPGLVKPSETLSLTCTVSGGSISSRSDYWGWIRQPPGKGLEWIGTIYYSGDTYYNPSLKSRVTISVDTSKNQFSLKLSSVTAADTAVYYCARQQLVLYYFDYWGQGTLVTVSS VL: EIVLTQSPGTLSLSPGERATLSCRASQSVSSSYLAWYQQKPGQAPRLLIYATSNRATGIPDRFSGSGSGTDFTLTISRLEPEDFAVYYCQQHGSSPPLTFGGGTKVEIK | 39% | 78% | 75% | 40% | 75% | 73% | 38% | 80% | 77% |  |
| 21H6 (antibody, V domains shown) VH: QVQLVESGGGLVKPGGSLRLSCAASGFTFSDYYMSWIRQAPGKGLEWVSYISNSGITIYYADSVKGRFTISRDNAKNSLYLQMNSLRAGDTAVYYCAREEWYSSRWYRNFDYWGQGTLVTVSS VL: DIQMTQFSSSLSASVGDRVTITCRASQSISRYLNWYQQKPGKAPKLLIYAASSLQSGVPSRFNGSGSGTDFTLTISSLQPEDFATYYCQQSYSAPLTFGGGTKVEIK | 28% | 84% | 94% | 23% | 78% | 93% | 34% | 90% | 95% |  |
| 33E1 (antibody, V domains shown) VH: QVQLQESGPGLVKPSQTLSLTCTVSGGSISSGDHYWSWIRQHPGKGLEWIGHIYYSGSTDYNPSLKSRVTISVDTSKNHFSLKLNSVTAADTAVYYCARTNSSSWSDWYFDLWGRGTLVTVSS VL: DIVMTQSPDSLAVSLGERATINCKSSQSILYSSNNKNYLAWYQRKPGQPPILLIHWASTRESGVPDRFSGSGSRTDFTLTISSLQAEDVAVYYCQQYFITPWTFGQGTKVEIK | 32% | 69% | 79% | 29% | 75% | 83% | 36% | 64% | 75% |  |
